Data set [1] concerns the target T1, Sfl VirB (Shigella flexneri, UniProt P0A247).
T1 construct: full length, N-terminal GFP tag removed with HRV-3C protease, made in E. coli BL21-Gold (DE3), dimer; gene on invasion plasmid pINV
Briefly: isothermal titration calorimetry. Format: binding. In general terms: ITC needs no label: the signal is the heat of the interaction.

Data set [2] deals with the molecule itself. Briefly: cross-linking; plasmid entrapment assay: 2 uM VirB, 250 uM CTP, 50 nM plasmid DNA, 1 mM BMOE, room temperature; low stringency buffer (150 mM NaCl, 50 mM Tris-HCl pH 7.5, 5 mM MgCl2) or high stringency buffer (25 mM HEPES/NaOH pH 7.5, 500 mM NaCl, 5 mM MgCl2, 1 mM DTT, 10 uM BSA, 0.01% Tween 20); SDS-PAGE and agarose gel.
Data set [3] concerns the molecule itself. Briefly: cross-linking; site-specific cysteine cross-linking with 1 mM BMOE; 10 uM protein, with or without 1 mM CTP and 1 uM 40-bp DNA; 150 mM NaCl (also 500/1000 mM), 50 mM Tris-HCl pH 7.5, 5 mM MgCl2; room temperature (25 °C); SDS-PAGE, Coomassie, band quantification.

What is called Kd is the equilibrium constant for the complex coming apart. Usually stoichiometry N stands for the number of molecules, sites or subunits per partner or assembly.

In data set [1], `Nc1ccn([C@@H]2O[C@H](COP(=O)(O)OP(=O)(O)OP(=O)(O)O)[C@@H](O)[C@H]2O)c(=O)n1` [CTP] displayed a Kd of roughly 1000 nM.

B1: VirB(C5S, Q15C, A297C) (natural protein)
chain: MVDLSNDLLSIKEGCKKEFTLHSGNKVSFIKAKIPHKRIQDLTFVNQKTNVRDQESLTEESLADIIKTIKLQQFFPVIGREIDGRIEILDGTRRRASAIYAGADLEVLYSKEYISTLDARKLANDIQTAKEHSIRELGIGLNFLKVSGMSYKDIAKKENLSRAKVTRAFQAASVPQEIISLFPIASELNFNDYKILFNYYKGLEKANESLSSTLPILKEEIKDLDTNLPPDIYKKEILNIIKKSKNRKQNPSLKVDSLFISKDKRTYIKRKENKTNRTLIFTLSKINKTVQREIDECIRDIISRHLSSS
notes: not shown: GFP, N-terminal, cleaved
With B1, the “stoichiometry N” value in data set [2] was 2.

B2: VirB (natural protein)
chain: MVDLCNDLLSIKEGQKKEFTLHSGNKVSFIKAKIPHKRIQDLTFVNQKTNVRDQESLTEESLADIIKTIKLQQFFPVIGREIDGRIEILDGTRRRASAIYAGADLEVLYSKEYISTLDARKLANDIQTAKEHSIRELGIGLNFLKVSGMSYKDIAKKENLSRAKVTRAFQAASVPQEIISLFPIASELNFNDYKILFNYYKGLEKANESLSSTLPILKEEIKDLDTNLPPDIYKKEILNIIKKSKNRKQNPSLKVDSLFISKDKRTYIKRKENKTNRTLIFTLSKINKTVQREIDEAIRDIISRHLSSS
notes: as for B1
Turning to B2, in data set [3], the binding result is listed as “binds”.

B3: VirB(C5S, I30C) (natural protein)
chain: MVDLSNDLLSIKEGQKKEFTLHSGNKVSFCKAKIPHKRIQDLTFVNQKTNVRDQESLTEESLADIIKTIKLQQFFPVIGREIDGRIEILDGTRRRASAIYAGADLEVLYSKEYISTLDARKLANDIQTAKEHSIRELGIGLNFLKVSGMSYKDIAKKENLSRAKVTRAFQAASVPQEIISLFPIASELNFNDYKILFNYYKGLEKANESLSSTLPILKEEIKDLDTNLPPDIYKKEILNIIKKSKNRKQNPSLKVDSLFISKDKRTYIKRKENKTNRTLIFTLSKINKTVQREIDEAIRDIISRHLSSS
notes: also called engineered C5S, I30C; not shown: GFP, N-terminal, cleaved
As for B3, the binding result in data set [3] was “binds”.

The record behind these values is PMC10676424, “VirB, a transcriptional activator of virulence in Shigella flexneri, uses CTP as a cofactor” (Communications Biology, 2023).
